# Test results taken from publication PMC3438196.
# What was measured:
# Assay in all cases: two-hybrid; MAPPIT (mammalian two-hybrid) in intact HEK293T cells: bait on the EpoR/leptin receptor chimera, prey on gp130 fragments, pXP2d2-rPAP1-luciferase reporter; fold induction of luciferase, Epo-stimulated (10 ng/ml hEpo) over unstimulated; 6-well or 96-well calcium phosphate transfection
# [1] = target: Apobec3G TK98-99AS MAPPIT bait (human) (UniProt Q9HC16)
# [2] = target: Apobec3G TF106-107AA MAPPIT bait (human) (UniProt Q9HC16)
# Sequence of Apobec3G TF106-107AA MAPPIT bait (human) (Q9HC16 whole entry T106A/F107A): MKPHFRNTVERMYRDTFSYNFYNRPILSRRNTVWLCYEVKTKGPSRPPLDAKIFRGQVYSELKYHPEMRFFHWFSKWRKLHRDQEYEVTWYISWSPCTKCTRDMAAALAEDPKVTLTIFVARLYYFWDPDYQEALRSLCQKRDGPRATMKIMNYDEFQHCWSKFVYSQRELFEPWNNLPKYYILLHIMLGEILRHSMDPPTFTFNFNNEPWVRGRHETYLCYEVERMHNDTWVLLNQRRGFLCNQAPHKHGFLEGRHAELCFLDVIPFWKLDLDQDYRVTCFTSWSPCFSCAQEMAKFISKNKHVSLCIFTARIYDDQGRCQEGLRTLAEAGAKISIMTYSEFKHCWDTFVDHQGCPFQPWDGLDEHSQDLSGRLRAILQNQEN
# [3] = target: Apobec3G RD102-103SS MAPPIT bait (human) (UniProt Q9HC16)
# Sequence of Apobec3G RD102-103SS MAPPIT bait (human) (Q9HC16 whole entry R102S/D103S): as the sequence (Q9HC16 whole entry T106A/F107A) above, with R102S, D103S, A106T, A107F counted along it
# [4] = target: Apobec3G R136A MAPPIT bait (human) (UniProt Q9HC16)
# Sequence of Apobec3G R136A MAPPIT bait (human) (Q9HC16 whole entry R136A): as the sequence (Q9HC16 whole entry T106A/F107A) above, with A106T, A107F, R136A counted along it
# [5] = target: Apobec3G K99D MAPPIT bait (human) (UniProt Q9HC16)
# Sequence of Apobec3G K99D MAPPIT bait (human) (Q9HC16 whole entry K99D): as the sequence (Q9HC16 whole entry T106A/F107A) above, with K99D, A106T, A107F counted along it
# [6] = target: Apobec3G T32D MAPPIT bait (human) (UniProt Q9HC16)
# Sequence of Apobec3G T32D MAPPIT bait (human) (Q9HC16 whole entry T32D): as the sequence (Q9HC16 whole entry T106A/F107A) above, with T32D, A106T, A107F counted along it
# [7] = target: Apobec3G D128H MAPPIT bait (human) (UniProt Q9HC16)
# Sequence of Apobec3G D128H MAPPIT bait (human) (Q9HC16 whole entry D128H): as the sequence (Q9HC16 whole entry T106A/F107A) above, with A106T, A107F, D128H counted along it
# [8] = target: Apobec3G R14S MAPPIT bait (human) (UniProt Q9HC16)
# Sequence of Apobec3G R14S MAPPIT bait (human) (Q9HC16 whole entry R14S): as the sequence (Q9HC16 whole entry T106A/F107A) above, with R14S, A106T, A107F counted along it
# [9] = target: Apobec3G QE132-133AA MAPPIT bait (human) (UniProt Q9HC16)
# Sequence of Apobec3G QE132-133AA MAPPIT bait (human) (Q9HC16 whole entry Q132A/E133A): as the sequence (Q9HC16 whole entry T106A/F107A) above, with A106T, A107F, Q132A, E133A counted along it
# [10] = target: Apobec3G LS27-28AA MAPPIT bait (human) (UniProt Q9HC16)
# Sequence of Apobec3G LS27-28AA MAPPIT bait (human) (Q9HC16 whole entry L27A/S28A): as the sequence (Q9HC16 whole entry T106A/F107A) above, with L27A, S28A, A106T, A107F counted along it
# [11] = target: Apobec3G D128Q MAPPIT bait (human) (UniProt Q9HC16)
# Sequence of Apobec3G D128Q MAPPIT bait (human) (Q9HC16 whole entry D128Q): as the sequence (Q9HC16 whole entry T106A/F107A) above, with A106T, A107F, D128Q counted along it
# [12] = target: Apobec3G D130A MAPPIT bait (human) (UniProt Q9HC16)
# Sequence of Apobec3G D130A MAPPIT bait (human) (Q9HC16 whole entry D130A): as the sequence (Q9HC16 whole entry T106A/F107A) above, with A106T, A107F, D130A counted along it
# [13] = target: Apobec3G RD102-103EK MAPPIT bait (human) (UniProt Q9HC16)
# Sequence of Apobec3G RD102-103EK MAPPIT bait (human) (Q9HC16 whole entry R102E/D103K): as the sequence (Q9HC16 whole entry T106A/F107A) above, with R102E, D103K, A106T, A107F counted along it
# [14] = target: Apobec3G V9A MAPPIT bait (human) (UniProt Q9HC16)
# Sequence of Apobec3G V9A MAPPIT bait (human) (Q9HC16 whole entry V9A): as the sequence (Q9HC16 whole entry T106A/F107A) above, with V9A, A106T, A107F counted along it
# [15] = target: Apobec3G T32Q MAPPIT bait (human) (UniProt Q9HC16)
# Sequence of Apobec3G T32Q MAPPIT bait (human) (Q9HC16 whole entry T32Q): as the sequence (Q9HC16 whole entry T106A/F107A) above, with T32Q, A106T, A107F counted along it
# [16] = target: Apobec3G N20A MAPPIT bait (human) (UniProt Q9HC16)
# Sequence of Apobec3G N20A MAPPIT bait (human) (Q9HC16 whole entry N20A): as the sequence (Q9HC16 whole entry T106A/F107A) above, with N20A, A106T, A107F counted along it
# Sequence of Apobec3G TK98-99AS MAPPIT bait (human) (Q9HC16 whole entry T98A/K99S): as the sequence (Q9HC16 whole entry T106A/F107A) above, with T98A, K99S, A106T, A107F counted along it
substance,measurement,setting,value
Gagpol MAPPIT prey (pMG2-Gagpol) (natural protein),"MAPPIT signal, % of WT",[1],79 % of WT
same,"MAPPIT signal, % of WT",[2],94 % of WT
same,"MAPPIT signal, % of WT",[3],63 % of WT
same,"MAPPIT signal, % of WT",[4],48 % of WT
same,"MAPPIT signal, % of WT",[5],96 % of WT
same,"MAPPIT signal, % of WT",[6],111 % of WT
same,"MAPPIT signal, % of WT",[7],60 % of WT
same,"MAPPIT signal, % of WT",[8],106 % of WT
same,"MAPPIT signal, % of WT",[9],80 % of WT
same,"MAPPIT signal, % of WT",[10],48 % of WT
same,"MAPPIT signal, % of WT",[11],71 % of WT
same,"MAPPIT signal, % of WT",[12],103 % of WT
same,"MAPPIT signal, % of WT",[13],85 % of WT
same,"MAPPIT signal, % of WT",[14],101 % of WT
same,"MAPPIT signal, % of WT",[15],118 % of WT
same,"MAPPIT signal, % of WT",[16],71 % of WT
